Assay results from patent US20250250357A1 (NANJING ZAIMING PHARMACEUTICAL, published 2025).

Columns and labels:
[1] = target: T1, human MSLN-hFc protein (Acro, Cat. No. MSN-H5253) (human, UniProt Q13421 296-580); test: ELISA, coated human MSLN-hFc, antibody 0.001 nM
T1 construct: bought protein; also called human MSLN full-length protein; not shown: human Fc (hFc) of the bought protein

[2] = target: T1, human MSLN-hFc protein (Acro, Cat. No. …); test: ELISA, coated human MSLN-hFc, antibody 10 nM
[3] = target: T1, human MSLN-hFc protein (Acro, Cat. No. …); test: ELISA, coated human MSLN-hFc, antibody 0.1 nM
[4] = target: T1, human MSLN-hFc protein (Acro, Cat. No. …); test: ELISA, coated human MSLN-hFc, antibody 100 nM
[5] = target: T1, human MSLN-hFc protein (Acro, Cat. No. …); test: ELISA, coated human MSLN-hFc, antibody 0.01 nM
[6] = target: T1, human MSLN-hFc protein (Acro, Cat. No. …); test: ELISA, coated human MSLN-hFc, antibody 1 nM
[7] = target: T1, human MSLN-hFc protein (Acro, Cat. No. …); test: ELISA, coated human MSLN-hFc, antibody 0.0001 nM
[8] = target: T1, human MSLN-hFc protein (Acro, Cat. No. …); test: ELISA, coated human MSLN-hFc, antibody 10 nM; remark: listed apart in the source
[9] = target: T1, human MSLN-hFc protein (Acro, Cat. No. …); test: ELISA, coated human MSLN-hFc, antibody 0.001 nM; remark: listed apart in the source
[10] = target: T1, human MSLN-hFc protein (Acro, Cat. No. …); test: ELISA, coated human MSLN-hFc, antibody 1 nM; remark: listed apart in the source
[11] = target: T1, human MSLN-hFc protein (Acro, Cat. No. …); test: ELISA, coated human MSLN-hFc, antibody 0.0001 nM; remark: listed apart in the source
[12] = target: T1, human MSLN-hFc protein (Acro, Cat. No. …); test: ELISA, coated human MSLN-hFc, antibody 0.01 nM; remark: listed apart in the source
[13] = target: T1, human MSLN-hFc protein (Acro, Cat. No. …); test: ELISA, coated human MSLN-hFc, antibody 100 nM; remark: listed apart in the source
[14] = target: T1, human MSLN-hFc protein (Acro, Cat. No. …); test: ELISA, coated human MSLN-hFc, antibody 0.1 nM; remark: listed apart in the source

T1 sequence (Q13421 other isoform, or with tags, fused parts or gaps limits assumed): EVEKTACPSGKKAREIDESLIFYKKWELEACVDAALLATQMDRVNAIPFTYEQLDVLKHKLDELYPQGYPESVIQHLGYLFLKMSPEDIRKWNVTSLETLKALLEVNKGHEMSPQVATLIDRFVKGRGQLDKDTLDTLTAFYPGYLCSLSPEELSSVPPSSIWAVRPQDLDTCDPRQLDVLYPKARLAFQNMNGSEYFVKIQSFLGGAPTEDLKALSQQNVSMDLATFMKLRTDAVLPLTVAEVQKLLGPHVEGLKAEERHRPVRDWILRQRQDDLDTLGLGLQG

OD450 nm [1]	OD450 nm [2]	OD450 nm [3]	OD450 nm [4]	OD450 nm [5]	OD450 nm [6]	OD450 nm [7]	OD450 nm [8]	OD450 nm [9]	OD450 nm [10]	OD450 nm [11]	OD450 nm [12]	OD450 nm [13]	OD450 nm [14]	Binder
0.06	1.17	0.1	1.95	0.06	0.31	0.05								F2.39.3-H8 (scFv, not shown: small tags and cut ends, also called S009-F2.39.3 humanized VH2 + VL4) scFv: EVQLVQSGAEVKKPGASVKVSCKASGYTFTNYWMHWVRQAPGQGLEWMGNINPSSGDSYYNERFMSRVTMTVDKSTSTAYMELSSLRSEDTAVYYCARSGGLWLAFWGQGTLVTVSSGGGGSGGGGSGGGGSDIVMTQTPLSLSVTPGQPASISCKSSQTLLNSVSQNNYLAWYQQKPGQSPTLLVYFASTRESGVPDRFSGSGSGTDFTLKISRVEAEDVGVYYCQQHYRTPYTFGGGTKVEIK
0.06	1.23	0.17	1.68	0.07	0.55	0.06								F2.39.3-H1 (scFv, not shown: small tags and cut ends, expressed as VH-(G4S)3-VL-his or VL-(G4S)3-VH-his; also called S009-F2.39.3 humanized VH1 + VL1) scFv: EVQLVQSGAEVKKPGASVKVSCKASGYTFTNYWMHWVRQAPGQGLEWMGNINPSSGDSYYNERFMSRVTMTVDKSTSTVYMELSSLRSEDTAVYYCARSGGLWLAFWGQGTLVTVSSGGGGSGGGGSGGGGSDIVMTQSPDSLAVSLGERATINCKSSQTLLNSVSQNNYLAWYQQKPGQSPKLLIYFASTRESGVPDRFSGSGSGTDFTLTISSLQAEDVAVYYCQQHYRTPYTFGGGTKVEIK
0.06	1.19	0.1	1.82	0.06	0.3	0.06								F2.39.3-H2 (scFv, not shown: small tags and cut ends, also called S009-F2.39.3 humanized VH1 + VL2) scFv: EVQLVQSGAEVKKPGASVKVSCKASGYTFTNYWMHWVRQAPGQGLEWMGNINPSSGDSYYNERFMSRVTMTVDKSTSTVYMELSSLRSEDTAVYYCARSGGLWLAFWGQGTLVTVSSGGGGSGGGGSGGGGSDIVMTQSPDSLAVSLGERATINCKSSQTLLNSVSQNNYLAWYQQKPGQSPTLLIYFASTRESGVPDRFSGSGSGTDFTLTISSLQAEDVAVYYCQQHYRTPYTFGGGTKVEIK
0.06	1.22	0.11	1.81	0.06	0.39	0.05								F2.39.3-H9 (scFv, not shown: small tags and cut ends, also called S009-F2.39.3 humanized VH3 + VL1) scFv: EVQLVQSGAEVKKPGASVKVSCKASGYTFTNYWMHWVRQAPGQGLEWMGNINPSSGDSYYNERFMSRVTMTVDKSTSTAYMELSSLRSEDTAVYYCARSGGLWLAFWGPGTLVTVSSGGGGSGGGGSGGGGSDIVMTQSPDSLAVSLGERATINCKSSQTLLNSVSQNNYLAWYQQKPGQSPKLLIYFASTRESGVPDRFSGSGSGTDFTLTISSLQAEDVAVYYCQQHYRTPYTFGGGTKVEIK
0.06	1.18	0.1	1.69	0.07	0.31	0.06								F2.39.3-H6 (scFv, not shown: small tags and cut ends, also called S009-F2.39.3 humanized VH2 + VL2) scFv: EVQLVQSGAEVKKPGASVKVSCKASGYTFTNYWMHWVRQAPGQGLEWMGNINPSSGDSYYNERFMSRVTMTVDKSTSTAYMELSSLRSEDTAVYYCARSGGLWLAFWGQGTLVTVSSGGGGSGGGGSGGGGSDIVMTQSPDSLAVSLGERATINCKSSQTLLNSVSQNNYLAWYQQKPGQSPTLLIYFASTRESGVPDRFSGSGSGTDFTLTISSLQAEDVAVYYCQQHYRTPYTFGGGTKVEIK

Continued, binder first:

Binder	OD450 nm [1]	OD450 nm [2]	OD450 nm [3]	OD450 nm [4]	OD450 nm [5]	OD450 nm [6]	OD450 nm [7]	OD450 nm [8]	OD450 nm [9]	OD450 nm [10]	OD450 nm [11]	OD450 nm [12]	OD450 nm [13]	OD450 nm [14]
F2.23.12-H5 (scFv, not shown: small tags and cut ends, also called S009-F2.23.12 humanized VH2 + VL1) scFv: EVQLVQSGAEVKKPGASVKVSCKASGYTFTNYWMHWVRQAPGQGLEWMGNINPSNGGPYYNERFRSRVTMTVDKSTSTAYMELSSLRSEDTAVYYCARPYYGSSYGYFDYWGQGTTVTVSSGGGGSGGGGSGGGGSDIQMTQSPSSLSASVGDRVTITCKASQDINKYIAWYQQKPGKAPKLLIHYTSELQPGVPSRFSGSGSGTDFTFTISSLQPEDIATYYCLQYANPLRTFGGGTKVEIK								0.83	0.06	0.22	0.06	0.07	1.37	0.09
F2.23.12-H1 (scFv, not shown: small tags and cut ends, also called S009-F2.23.12 humanized VH1 + VL1) scFv: EVQLVQSGAEVKKPGASVKVSCKASGYTFTNYWMHWVRQAPGQGLEWMGNINPSNGGPYYNERFRSRVTMTVDKSTSTVYMELSSLRSEDTAVYYCARPYYGSSYGYFDYWGQGTTVTVSSGGGGSGGGGSGGGGSDIQMTQSPSSLSASVGDRVTITCKASQDINKYIAWYQQKPGKAPKLLIHYTSELQPGVPSRFSGSGSGTDFTFTISSLQPEDIATYYCLQYANPLRTFGGGTKVEIK								0.82	0.06	0.26	0.07	0.07	1.22	0.09
F2.23.12-H13 (scFv, not shown: small tags and cut ends, also called S009-F2.23.12 humanized VH4 + VL1) scFv: EVQLVQSGAEVKKPGASVKVSCKASGYTFTNYWMHWVRQAPGQGLEWMGNINPSQGGPYYNERFRSRVTMTVDKSTSTAYMELSSLRSEDTAVYYCARPYYGSSYGYFDYWGQGTTVTVSSGGGGSGGGGSGGGGSDIQMTQSPSSLSASVGDRVTITCKASQDINKYIAWYQQKPGKAPKLLIHYTSELQPGVPSRFSGSGSGTDFTFTISSLQPEDIATYYCLQYANPLRTFGGGTKVEIK								0.73	0.07	0.16	0.05	0.07	1.38	0.08
F2.23.12-H4 (scFv, not shown: small tags and cut ends, also called S009-F2.23.12 humanized VH1 + VL4) scFv: EVQLVQSGAEVKKPGASVKVSCKASGYTFTNYWMHWVRQAPGQGLEWMGNINPSNGGPYYNERFRSRVTMTVDKSTSTVYMELSSLRSEDTAVYYCARPYYGSSYGYFDYWGQGTTVTVSSGGGGSGGGGSGGGGSDIQMTQSPSSLSASVGDRVTITCKASQDINKYIAWYQHKPGKAPKLLIHYTSELQPGVPSRFSGSGSGRDYTFTISSLQPEDIATYYCLQYANPLRTFGGGTKVEIK								0.92	0.08	0.57	0.07	0.09	1.22	0.18
F2.23.12-H16 (scFv, not shown: small tags and cut ends, also called S009-F2.23.12 humanized VH4 + VL4) scFv: EVQLVQSGAEVKKPGASVKVSCKASGYTFTNYWMHWVRQAPGQGLEWMGNINPSQGGPYYNERFRSRVTMTVDKSTSTAYMELSSLRSEDTAVYYCARPYYGSSYGYFDYWGQGTTVTVSSGGGGSGGGGSGGGGSDIQMTQSPSSLSASVGDRVTITCKASQDINKYIAWYQHKPGKAPKLLIHYTSELQPGVPSRFSGSGSGRDYTFTISSLQPEDIATYYCLQYANPLRTFGGGTKVEIK								0.64	0.07	0.13	0.05	0.06	1.2	0.07
F2.23.12-H8 (scFv, not shown: small tags and cut ends, also called S009-F2.23.12 humanized VH2 + VL4) scFv: EVQLVQSGAEVKKPGASVKVSCKASGYTFTNYWMHWVRQAPGQGLEWMGNINPSNGGPYYNERFRSRVTMTVDKSTSTAYMELSSLRSEDTAVYYCARPYYGSSYGYFDYWGQGTTVTVSSGGGGSGGGGSGGGGSDIQMTQSPSSLSASVGDRVTITCKASQDINKYIAWYQHKPGKAPKLLIHYTSELQPGVPSRFSGSGSGRDYTFTISSLQPEDIATYYCLQYANPLRTFGGGTKVEIK								0.62	0.07	0.17	0.05	0.07	1.22	0.09
